Data reported in the supplement of paper PMC9112550, “Optimization of the antimicrobial peptide Bac7 by deep mutational scanning” (BMC Biology, 2022).

These sequences were tested on Escherichia coli TOP10 (assay: shrunken log2 fold change of peptide-encoding DNA abundance (4.5 h post-induction vs induction); higher = less antimicrobial activity (less host growth inhibition)). Conditions: time post-induction: 4.5 h; library: site-saturation at positions 5, 18, 19, 20.
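Note: peptides expressed intracellularly from a pBAD plasmid library in pooled LB shake-flask culture, induced with 0.3% L-arabinose, DNA abundance read by NGS, three biological replicates, DESeq2 with apeglm shrinkage.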

| Sequence | shrunken log2 fold change |
| --- | --- |
| RRIRMRPPRLPRPRPRPMPKPRP | 0.0834 |
| RRIRWRPPRLPRPRPRPVAKPRP | 0.404 |
| RRIRVRPPRLPRPRPRPAHEPRP | 0.205 |
| RRIRWRPPRLPRPRPRPGPTPRP | 0.487 |
| RRIRFRPPRLPRPRPRPDVFPRP | -0.119 |
| RRIRIRPPRLPRPRPRPSVLPRP | -0.189 |
| RRIRTRPPRLPRPRPRPLFFPRP | -0.263 |
| RRIRVRPPRLPRPRPRPTSAPRP | 0.0866 |
| RRIRDRPPRLPRPRPRPTNVPRP | -0.138 |
| RRIRKRPPRLPRPRPRPIVAPRP | 0.399 |
| RRIRRRPPRLPRPRPRPVQRPRP | 0.254 |
| RRIRNRPPRLPRPRPRPYADPRP | -0.161 |
| RRIRRRPPRLPRPRPRPEILPRP | 0.14 |
| RRIRIRPPRLPRPRPRPHNQPRP | -0.528 |
| RRIRNRPPRLPRPRPRPEAIPRP | 0.113 |
| RRIRQRPPRLPRPRPRPYCAPRP | -0.624 |
| RRIRGRPPRLPRPRPRPCFGPRP | 0.262 |
| RRIRRRPPRLPRPRPRPQHLPRP | -0.289 |
| RRIRCRPPRLPRPRPRPWIGPRP | -0.775 |
| RRIRVRPPRLPRPRPRPVYGPRP | -0.167 |
| RRIRPRPPRLPRPRPRPYGNPRP | -0.79 |
| RRIRNRPPRLPRPRPRPGVMPRP | -0.141 |
| RRIRNRPPRLPRPRPRPSIEPRP | -0.214 |
| RRIRGRPPRLPRPRPRPFPLPRP | 0.227 |
| RRIRLRPPRLPRPRPRPPKSPRP | 0.275 |

| Sequence | shrunken log2 fold change |
| --- | --- |
| RRIRTRPPRLPRPRPRPMAAPRP | 0.0975 |
| RRIRHRPPRLPRPRPRPNCMPRP | -0.0153 |
| RRIRNRPPRLPRPRPRPWYWPRP | -0.109 |
| RRIRRRPPRLPRPRPRPRVIPRP | 0.0591 |
| RRIRRRPPRLPRPRPRPKMMPRP | 0.296 |
| RRIRSRPPRLPRPRPRPLIWPRP | 0.312 |
| RRIRRRPPRLPRPRPRPAQLPRP | 0.42 |
| RRIRQRPPRLPRPRPRPPPFPRP | 0.259 |
| RRIRIRPPRLPRPRPRPYMPPRP | -1.27 |
| RRIRTRPPRLPRPRPRPHMCPRP | -0.195 |
| RRIRSRPPRLPRPRPRPATNPRP | 0.0897 |
| RRIRQRPPRLPRPRPRPHAMPRP | -0.0121 |
| RRIRSRPPRLPRPRPRPAATPRP | 0.67 |
| RRIRYRPPRLPRPRPRPSMNPRP | -0.863 |
| RRIRSRPPRLPRPRPRPKMCPRP | -0.015 |
| RRIRIRPPRLPRPRPRPDHSPRP | -0.152 |
| RRIRTRPPRLPRPRPRPTTCPRP | -0.00487 |
| RRIRWRPPRLPRPRPRPPHLPRP | 0.0195 |
| RRIRDRPPRLPRPRPRPLGNPRP | -0.0332 |
| RRIRSRPPRLPRPRPRPNAPPRP | 0.0774 |
| RRIRLRPPRLPRPRPRPAECPRP | -0.167 |
| RRIRHRPPRLPRPRPRPKYYPRP | 0.046 |
| RRIRMRPPRLPRPRPRPAPGPRP | 2.04 |
| RRIRMRPPRLPRPRPRPVQCPRP | -0.0134 |
| RRIRARPPRLPRPRPRPEHLPRP | 0.108 |

| Sequence | shrunken log2 fold change |
| --- | --- |
| RRIRGRPPRLPRPRPRPHFLPRP | 1.03 |
| RRIRTRPPRLPRPRPRPHVQPRP | -0.156 |
| RRIRNRPPRLPRPRPRPWWCPRP | -0.111 |
| RRIRARPPRLPRPRPRPSCNPRP | -0.515 |
| RRIRNRPPRLPRPRPRPLHGPRP | -0.0305 |
| RRIRGRPPRLPRPRPRPKRFPRP | -0.0242 |
| RRIRLRPPRLPRPRPRPRSNPRP | 1.62 |
| RRIRKRPPRLPRPRPRPFTHPRP | 0.0159 |
| RRIRHRPPRLPRPRPRPRHDPRP | -0.0713 |
| RRIRRRPPRLPRPRPRPYFFPRP | -0.0972 |
| RRIRFRPPRLPRPRPRPMHSPRP | -0.263 |
| RRIRERPPRLPRPRPRPMHAPRP | 0.262 |
| RRIRFRPPRLPRPRPRPTSSPRP | -0.0359 |
| RRIRRRPPRLPRPRPRPSHPPRP | 0.167 |
| RRIRWRPPRLPRPRPRPPPLPRP | 1.32 |
| RRIRFRPPRLPRPRPRPHYTPRP | -0.385 |
| RRIRGRPPRLPRPRPRPWPRPRP | 0.37 |
| RRIRCRPPRLPRPRPRPCYWPRP | -0.595 |
| RRIRPRPPRLPRPRPRPSEGPRP | -0.148 |
| RRIRQRPPRLPRPRPRPREMPRP | 0.0554 |
| RRIRARPPRLPRPRPRPMRKPRP | -0.046 |
| RRIRARPPRLPRPRPRPGRHPRP | 0.159 |
| RRIRKRPPRLPRPRPRPYTPPRP | -0.344 |
| RRIRCRPPRLPRPRPRPCCKPRP | -0.0101 |
| RRIRRRPPRLPRPRPRPEVHPRP | 0.648 |

| Sequence | shrunken log2 fold change |
| --- | --- |
| RRIRRRPPRLPRPRPRPESYPRP | 0.0503 |
| RRIRTRPPRLPRPRPRPAACPRP | 0.0816 |
| RRIRVRPPRLPRPRPRPNLMPRP | -0.153 |
| RRIRRRPPRLPRPRPRPSLYPRP | -0.35 |
| RRIRKRPPRLPRPRPRPQVIPRP | 0.108 |
| RRIRMRPPRLPRPRPRPTVFPRP | 0.498 |
| RRIRLRPPRLPRPRPRPCRAPRP | 0.146 |
| RRIRWRPPRLPRPRPRPTVNPRP | 0.0302 |
| RRIRIRPPRLPRPRPRPAAEPRP | 0.197 |
| RRIRHRPPRLPRPRPRPERMPRP | -0.0151 |
| RRIRCRPPRLPRPRPRPHIIPRP | -0.11 |
| RRIRGRPPRLPRPRPRPPCPPRP | 0.86 |
| RRIRWRPPRLPRPRPRPWVQPRP | 0.128 |
| RRIRIRPPRLPRPRPRPSQRPRP | -0.466 |
| RRIRWRPPRLPRPRPRPMHKPRP | 0.219 |
| RRIRYRPPRLPRPRPRPIHTPRP | -0.379 |
| RRIRMRPPRLPRPRPRPAVNPRP | 0.0731 |
| RRIRTRPPRLPRPRPRPEIRPRP | -0.0371 |
| RRIRYRPPRLPRPRPRPPVHPRP | -0.0526 |
| RRIRSRPPRLPRPRPRPRKVPRP | 1.58 |
| RRIRKRPPRLPRPRPRPTCIPRP | -0.176 |
| RRIRHRPPRLPRPRPRPSFWPRP | 0.00023 |
| RRIRSRPPRLPRPRPRPTMRPRP | 0.881 |
| RRIRTRPPRLPRPRPRPNVRPRP | 0.075 |
| RRIRFRPPRLPRPRPRPQDVPRP | -0.193 |

| Sequence | shrunken log2 fold change |
| --- | --- |
| RRIRQRPPRLPRPRPRPPVRPRP | 0.739 |
| RRIRPRPPRLPRPRPRPHYTPRP | -0.516 |
| RRIRGRPPRLPRPRPRPMGMPRP | 0.886 |
| RRIRSRPPRLPRPRPRPIASPRP | 0.0102 |
| RRIRWRPPRLPRPRPRPCGKPRP | 0.0489 |
| RRIRKRPPRLPRPRPRPKSAPRP | 0.656 |
| RRIRDRPPRLPRPRPRPRMWPRP | 0.0802 |
| RRIRHRPPRLPRPRPRPRNHPRP | -0.481 |
| RRIRPRPPRLPRPRPRPDYQPRP | -0.211 |
| RRIRVRPPRLPRPRPRPACRPRP | -0.132 |
| RRIRMRPPRLPRPRPRPGREPRP | 1.02 |
| RRIRERPPRLPRPRPRPENGPRP | -0.025 |
| RRIRSRPPRLPRPRPRPTQQPRP | 0.138 |
| RRIRPRPPRLPRPRPRPSGYPRP | -0.204 |
| RRIRYRPPRLPRPRPRPGFFPRP | -0.205 |
| RRIRCRPPRLPRPRPRPVQMPRP | 0.239 |
| RRIRNRPPRLPRPRPRPKQTPRP | 0.317 |
| RRIRNRPPRLPRPRPRPFFLPRP | -0.255 |
| RRIRARPPRLPRPRPRPTYVPRP | 0.504 |
| RRIRKRPPRLPRPRPRPNISPRP | -0.102 |
| RRIRIRPPRLPRPRPRPKCKPRP | -1.21 |
| RRIRIRPPRLPRPRPRPTMVPRP | -0.719 |
| RRIRARPPRLPRPRPRPCAAPRP | 0.893 |
| RRIRERPPRLPRPRPRPGAKPRP | 0.188 |
| RRIRPRPPRLPRPRPRPSINPRP | -0.756 |

| Sequence | shrunken log2 fold change |
| --- | --- |
| RRIRCRPPRLPRPRPRPYMAPRP | -0.283 |
| RRIRCRPPRLPRPRPRPDQAPRP | 0.288 |
| RRIRMRPPRLPRPRPRPMTAPRP | 0.198 |
| RRIRSRPPRLPRPRPRPQTRPRP | 0.181 |
| RRIRFRPPRLPRPRPRPMSGPRP | -0.0751 |
| RRIRHRPPRLPRPRPRPAAIPRP | 0.0732 |
| RRIRFRPPRLPRPRPRPSKNPRP | -0.519 |
| RRIRERPPRLPRPRPRPLEQPRP | -0.0811 |
| RRIRERPPRLPRPRPRPGQFPRP | -0.295 |
| RRIRDRPPRLPRPRPRPFVHPRP | -0.0617 |
| RRIRMRPPRLPRPRPRPIVRPRP | -0.0408 |
| RRIRERPPRLPRPRPRPQWTPRP | -0.0833 |
| RRIRNRPPRLPRPRPRPNHCPRP | -0.216 |
| RRIRERPPRLPRPRPRPVPIPRP | 0.343 |
| RRIRIRPPRLPRPRPRPNHPPRP | -0.469 |
| RRIRGRPPRLPRPRPRPKSYPRP | 0.685 |
| RRIRRRPPRLPRPRPRPYCYPRP | -0.101 |
| RRIRDRPPRLPRPRPRPNTTPRP | -0.0542 |
| RRIRMRPPRLPRPRPRPDVVPRP | -0.0061 |
| RRIRNRPPRLPRPRPRPRGDPRP | 0.131 |
| RRIRSRPPRLPRPRPRPAQIPRP | -0.0853 |
| RRIRMRPPRLPRPRPRPQMAPRP | 0.349 |
| RRIRERPPRLPRPRPRPTMGPRP | -0.253 |
| RRIRWRPPRLPRPRPRPEWWPRP | -0.0316 |
| RRIRTRPPRLPRPRPRPVTTPRP | -0.116 |
